Results reported in patent US20170342107A1 (REGENTS OF THE UNIVERSITY OF MINNESOTA, published 2017).
Square brackets hold non-standard residues; d marks the D form. Bip = N[C@@H](Cc1ccc(-c2ccccc2)cc1)C(=O)O; dPhe(4-I) = N[C@H](Cc1ccc(I)cc1)C(=O)O; 2Nal = N[C@@H](Cc1ccc2ccccc2c1)C(=O)O; d2Nal = N[C@H](Cc1ccc2ccccc2c1)C(=O)O; Bta = N[C@@H](Cc1csc2ccccc12)C(=O)O; Tic = O=C(O)[C@@H]1Cc2ccccc2CN1

B1: SKY4-48-30, Ac-Tic-Arg-(pI)DPhe-Phe-NH2 (peptide)
peptide: Ac-[Tic]R[dPhe(4-I)]F-NH2
SMILES: CC(=O)N1Cc2ccccc2C[C@H]1C(=O)N[C@@H](CCCNC(=N)N)C(=O)N[C@H](Cc1ccc(I)cc1)C(=O)N[C@@H](Cc1ccccc1)C(N)=O
B2: SKY5-146-7, Ac-His-Arg-(pI)DPhe-Trp-NH2 (peptide)
peptide: Ac-HR[dPhe(4-I)]W-NH2
SMILES: CC(=O)N[C@@H](Cc1c[nH]cn1)C(=O)N[C@@H](CCCNC(=N)N)C(=O)N[C@H](Cc1ccc(I)cc1)C(=O)N[C@@H](Cc1c[nH]c2ccccc12)C(N)=O
B3: SKY4-48-26, Ac-Arg-Arg-(pI)DPhe-Phe-NH2 (peptide)
peptide: Ac-RR[dPhe(4-I)]F-NH2
SMILES: CC(=O)N[C@@H](CCCNC(=N)N)C(=O)N[C@@H](CCCNC(=N)N)C(=O)N[C@H](Cc1ccc(I)cc1)C(=O)N[C@@H](Cc1ccccc1)C(N)=O

target: T1, mouse melanocortin-3 receptor (mouse, UniProt P33033 1-323); assay: cell-based or functional assay
T1 sequence (P33033 whole entry): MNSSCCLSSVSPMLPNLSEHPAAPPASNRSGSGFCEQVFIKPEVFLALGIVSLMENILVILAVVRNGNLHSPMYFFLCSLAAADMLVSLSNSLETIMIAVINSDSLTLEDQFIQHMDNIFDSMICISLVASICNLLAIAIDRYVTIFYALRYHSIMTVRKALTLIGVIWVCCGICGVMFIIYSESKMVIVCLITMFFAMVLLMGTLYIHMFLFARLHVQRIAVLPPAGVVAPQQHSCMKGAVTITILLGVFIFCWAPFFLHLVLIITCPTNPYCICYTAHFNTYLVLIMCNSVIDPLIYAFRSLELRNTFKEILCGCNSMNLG

Agonist, % of NDP-MSH maximal response [% @ 100 µM]	Binder
32	Ac-[Bip]R[dPhe(4-I)][d2Nal]-NH2 [SKY4-48-44, Ac-Bip-Arg-(pI)DPhe-DNal(2')-NH2]
51	Ac-RR[dPhe(4-I)][2Nal]-NH2 [SKY4-48-34, Ac-Arg-Arg-(pI)DPhe-Nal(2')-NH2]
40	Ac-[d2Nal]R[dPhe(4-I)][d2Nal]-NH2 [SKY4-48-49, Ac-DNal(2')-Arg-(pI)DPhe-DNal(2')-NH2]

target: T2, mouse melanocortin-4 receptor (mouse, UniProt P56450 1-332); assay: cell-based or functional assay
T2 sequence (P56450 whole entry): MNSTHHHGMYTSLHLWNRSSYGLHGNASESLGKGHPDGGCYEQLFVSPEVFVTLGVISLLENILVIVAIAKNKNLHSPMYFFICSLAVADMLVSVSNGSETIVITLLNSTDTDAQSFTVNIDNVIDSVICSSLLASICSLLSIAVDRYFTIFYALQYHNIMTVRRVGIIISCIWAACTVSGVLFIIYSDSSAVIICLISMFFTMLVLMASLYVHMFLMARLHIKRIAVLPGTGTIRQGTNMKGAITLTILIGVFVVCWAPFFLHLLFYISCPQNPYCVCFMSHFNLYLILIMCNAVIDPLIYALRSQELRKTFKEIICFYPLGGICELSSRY

Agonist, % of NDP-MSH maximal response [% @ 100 µM]	Binder
50	Ac-HR[dPhe(4-I)][d2Nal]-NH2 [SKY4-48-43, Ac-His-Arg-(pI)DPhe-DNal(2')-NH2]
36	Ac-[Tic]R[dPhe(4-I)][Tic]-NH2 [SKY6-24-1, Ac-Tic-Arg-(pI)DPhe-Tic-NH2]
24	Ac-[Bip]R[dPhe(4-I)][Bip]-NH2 [SKY4-48-4, Ac-Bip-Arg-(pI)DPhe-Bip-NH2]
33	Ac-[2Nal]R[dPhe(4-I)][Tic]-NH2 [SKY4-48-24, Ac-Nal(2')-Arg-(pI)DPhe-Tic-NH2]
24	Ac-RR[dPhe(4-I)][Bta]-NH2 [SKY4-48-10, Ac-Arg-Arg-(pI)DPhe-3Bal-NH2]
47	Ac-HR[dPhe(4-I)][Bta]-NH2 [SKY4-48-11, Ac-His-Arg-(pI)DPhe-3Bal-NH2]
37	Ac-[Bta]R[dPhe(4-I)][Tic]-NH2 [SKY4-48-21, Ac-3Bal-Arg-(pI)DPhe-Tic-NH2]
37	Ac-[d2Nal]R[dPhe(4-I)][d2Nal]-NH2 [SKY4-48-49, Ac-DNal(2')-Arg-(pI)DPhe-DNal(2')-NH2]
45	Ac-[d2Nal]R[dPhe(4-I)][Bta]-NH2 [SKY4-48-17, Ac-DNal(2')-Arg-(pI)DPhe-3Bal-NH2]

target: mouse melanocortin-1 receptor (mouse, UniProt Q01727 1-315); assay: cell-based or functional assay
Sequence (Q01727 whole entry): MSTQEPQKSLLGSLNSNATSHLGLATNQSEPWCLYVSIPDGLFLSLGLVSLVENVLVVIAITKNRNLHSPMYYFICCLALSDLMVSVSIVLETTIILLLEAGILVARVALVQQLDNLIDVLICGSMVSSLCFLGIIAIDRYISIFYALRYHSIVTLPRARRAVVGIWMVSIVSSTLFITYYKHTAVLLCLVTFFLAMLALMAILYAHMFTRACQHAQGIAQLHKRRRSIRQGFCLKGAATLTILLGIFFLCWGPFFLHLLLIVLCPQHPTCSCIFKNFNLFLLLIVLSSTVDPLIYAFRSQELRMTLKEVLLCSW

Agonist, % of NDP-MSH maximal response [% @ 100 µM]	Binder
39	Ac-[Tic]R[dPhe(4-I)][Bip]-NH2 [SKY5-146-1, Ac-Tic-Arg-(pI)DPhe-Bip-NH2]
66	Ac-[Tic]R[dPhe(4-I)][2Nal]-NH2 [SKY4-48-38, Ac-Tic-Arg-(pI)DPhe-Nal(2')-NH2]
38	Ac-[Tic]R[dPhe(4-I)][Bta]-NH2 [SKY4-48-14, Ac-Tic-Arg-(pI)DPhe-3Bal-NH2]
23	Ac-[Bip]R[dPhe(4-I)][2Nal]-NH2 [SKY4-48-36, Ac-Bip-Arg-(pI)DPhe-Nal(2')-NH2]

target: mouse melanocortin-5 receptor (mouse, UniProt P41149 1-325); assay: cell-based or functional assay
Sequence (P41149 whole entry): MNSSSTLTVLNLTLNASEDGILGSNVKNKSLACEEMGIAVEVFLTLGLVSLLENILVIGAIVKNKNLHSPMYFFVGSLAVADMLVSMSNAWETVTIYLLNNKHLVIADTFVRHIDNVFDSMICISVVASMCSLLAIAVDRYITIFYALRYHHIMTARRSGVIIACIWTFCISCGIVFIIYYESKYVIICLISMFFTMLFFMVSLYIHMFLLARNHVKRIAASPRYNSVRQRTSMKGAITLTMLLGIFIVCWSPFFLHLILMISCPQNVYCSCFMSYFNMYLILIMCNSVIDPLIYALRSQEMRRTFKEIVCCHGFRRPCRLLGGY

Agonist, % of NDP-MSH maximal response [% @ 100 µM]	Binder
47	Ac-HR[dPhe(4-I)][d2Nal]-NH2 [SKY4-48-43, Ac-His-Arg-(pI)DPhe-DNal(2')-NH2]
21	B1
48	Ac-[Tic]R[dPhe(4-I)][2Nal]-NH2 [SKY4-48-38, Ac-Tic-Arg-(pI)DPhe-Nal(2')-NH2]
50	Ac-[Bta]R[dPhe(4-I)][2Nal]-NH2 [SKY4-48-37, Ac-3Bal-Arg-(pI)DPhe-Nal(2')-NH2]
55	Ac-[Bip]R[dPhe(4-I)][d2Nal]-NH2 [SKY4-48-44, Ac-Bip-Arg-(pI)DPhe-DNal(2')-NH2]
43	Ac-[d2Nal]R[dPhe(4-I)][d2Nal]-NH2 [SKY4-48-49, Ac-DNal(2')-Arg-(pI)DPhe-DNal(2')-NH2]
21	Ac-[Bip]R[dPhe(4-I)][2Nal]-NH2 [SKY4-48-36, Ac-Bip-Arg-(pI)DPhe-Nal(2')-NH2]

target: T2, mouse melanocortin-4 receptor; assay: cell-based or functional assay; remark: another data set of the same source

Agonist, % of NDP-MSH maximal response [% @ 100 µM]	pA2 (antagonist) [pA2]	Binder
29	6	B2

target: T1, mouse melanocortin-3 receptor; assay: 125I-NDP-MSH competitive displacement, HEK293 cells stably expressing mMC3R; negative = more potent than control
Source text: (§1) A typical experiment utilized a 12-well format.

Fold Diff. (IC50 against SKY4-48-1) [fold]	Binder
-52	Ac-RR[dPhe(4-I)][Bta]-NH2 [SKY4-48-10, Ac-Arg-Arg-(pI)DPhe-3Bal-NH2]
-15	Ac-HR[dPhe(4-I)][Bta]-NH2 [SKY4-48-11, Ac-His-Arg-(pI)DPhe-3Bal-NH2]
-8	B3

target: T2, mouse melanocortin-4 receptor; assay: 125I-NDP-MSH competitive displacement, HEK293 cells stably expressing mMC4R; negative = more potent than control
Source text: as §1

Fold Diff. (IC50 against SKY4-48-1) [fold]	Binder
1	Ac-RR[dPhe(4-I)][Bta]-NH2 [SKY4-48-10, Ac-Arg-Arg-(pI)DPhe-3Bal-NH2]
2	Ac-HR[dPhe(4-I)][Bta]-NH2 [SKY4-48-11, Ac-His-Arg-(pI)DPhe-3Bal-NH2]
4	B3
